According to article PMC10410706 (Proceedings of the National Academy of Sciences of the …, 2023):
Each block holds one binder with its values, some of them ahead of it.

B1: Smaug 73-278Δ156-196 (Smaug part of the single-chain crystallisation construct) (domain or fragment, Drosophila, UniProt Q23972 73-278, looked up)
chain: LFCEQVTTVTNLFEKWNDCERTVVMYALLKRLRYPSLKFLQYSIDSNLTQNLGTSQTNLSSVVIDINANNPVYLQNLLNAYKTARKEDILHEVLNMLPLLKPGNEEAKLIYLTLIPVAVKDTMQQIVPTELVQQIFSYLLIHPAITSEDRRSLNIWLRHLEDHIQ
B2: Smaug NTD (aa 70-281, His-tag removed) (domain or fragment, Drosophila, UniProt Q23972 70-281, looked up)
chain: SNALFCEQVTTVTNLFEKWNDCERTVVMYALLKRLRYPSLKFLQYSIDSNLTQNLGTSQTNLSSVVIDINANNPVYLQNLLNAYKTFQPCDLLDAMSSSSSDKDSMPCYGSDFQITTSAQCDERKLYARKEDILHEVLNMLPLLKPGNEEAKLIYLTLIPVAVKDTMQQIVPTELVQQIFSYLLIHPAITSEDRRSLNIWLRHLEDHIQAAA
B3: Smoothened 970-1003 synthetic peptide (wild-type) (peptide)
peptide: VPSYGEDELQQAMRLLNAASRQRTEAANEDFGGT

Key:
[1] = molecular target: the molecule itself; experiment: crystal structure
[2] = molecular target: B3; experiment: ITC
[3] = molecular target: B2; experiment: ITC
[4] = molecular target: B1; experiment: crystal structure
[5] = molecular target: T1, Smaug NTD (Drosophila melanogaster, UniProt Q23972 70-281); experiment: EMSA
T1 sequence: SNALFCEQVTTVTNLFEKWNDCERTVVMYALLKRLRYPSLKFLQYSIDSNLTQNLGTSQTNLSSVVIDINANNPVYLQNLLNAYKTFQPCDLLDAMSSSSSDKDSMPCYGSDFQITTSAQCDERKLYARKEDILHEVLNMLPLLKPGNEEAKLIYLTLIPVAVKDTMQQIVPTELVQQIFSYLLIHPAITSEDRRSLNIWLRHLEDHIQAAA

Binder: B1
binding result [1]: binds

Binder: B2
stoichiometry N [2]: 1

Binder: B3
Kd [3]: 800 nM

binding result [4]: binds
Binder: VPSYGEDELQQAMRLLNAASRQRTEAANEDFGGT [Smo 970-1003 (Smoothened part of the single-chain crystallisation construct)]

Binder: AGCACCGUAAAGC (ssRNA) [R13C]
binding result [5]: no binding
